Laboratory results as given in the nanobody polyreactivity screen of Harvey et al. (2022).

Test: yeast display, Sf9 membrane polyspecificity reagent, FACS + sequencing; frameworks hold sequencing errors
How it was run: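 Synthetic nanobody libraries on Saccharomyces cerevisiae BJ5465 were galactose-induced for 36–48 hours, stained 1 hour at 4 °C with 10% biotinylated, detergent-solubilized Sf9 membrane reagent and enriched on streptavidin microbeads. FACS then separated cells into low and high (top ~1%) gates by anti-HA (expression) and streptavidin (reagent binding) fluorescence. Genes were colony-PCR amplified, MiSeq 2 × 250 sequenced and CDR-length filtered. A clone's polyreactivity label is that of its gate of origin.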

Sequence | polyreactivity (PSR sort gate)
QVQLVESGGGLVQAGGSLRLSCGASGRTFAIYVMGWYRQAPGKERELVAAISRGGSTYYADSVKGRFTISRDNAKNTVYLQMNSLKPEDTAVYYCAAGTGTTSRYYYWGQGTQVTVSS | high polyreactivity
QVQLLESGGGVVQAGGSLRLSCAASGFTFLYNTMGGYRQAPGKVRELVAAISIRGGSTYYADSVKGRFTISRDNAKNTVYLQMNSLKPEDNAVYYCAARTPTPASRSRVYYWGHGTQVTVSS | high polyreactivity
QVQLVESGGGLVQAGGSLRLSCAASGRIFHIYAMGWYRQAPGKERELVAAISSDGSTYYADSVKGRFTISRDNAKNTVYLQMNSLKPEDTAVYYCAVESPQGRQCYEYWGQGTQVTVSS | low polyreactivity
QVQLVESGGGLVQAGGSLRLSCAASGYTFPSYAMGWYRQAPGKERELVAVITIGGTYYADSVKGRFTISRDNAKNTVYLQMNSLKPEDTAVYYCAADWAWDYYRGFDYWGQGTQVTVSS | low polyreactivity
QVQLVESGGGLVQAGGSLRLSCAASGFIFKWYAMGWYRQAPGKERELVAAISTSGGSTYYADSVKGRFTISRDNAKNTVYLQMNSLKPEDTAVYYCAVLVGRLVWSYNHWGQGTQVTVSS | high polyreactivity
QVQLVESGGGLVQAGGSLRLICAASGMTFYSYAMGWYRQAPGKERELVAAISATGGRTYYADSEKGRFTISRDNAKNTVYLQMNSLKPEDTEVYYCAAKSSYEYGYWGQGTQVTVSS | high polyreactivity
QVQLVESGGGLVQAGGSLRLSCAASGITFYYNAMGWYRQAPGKERELVAAIRSAGSTYYADSVKGRFTISRDNAKNTVYLQMNSLKPEDTAVYYCAAEDGNTDQVRVYWIMDYWGQGTQVTVSS | low polyreactivity
HVQLVESGGGLVQAGGSLRFSCAASGFIFTNYAMGWYRQAPGTERELVAAISFSGSSTYYADSVKGRFTISRDNAKNTVYLQMNSLNPEDTAVYYCAVDGVPSSFSHDYWGQGTKVTVSS | low polyreactivity
QVQLVESGVVLVQAGGSLRLSCAASGRIFRYYVMGWYRQAPGKERELVAAITNDGGNTNYADSVKGRFTISRDNEKNTVYLQMNSLKPEDTAVYYCNADRTHDRNPYTYATFDYWGQGTQVTVSS | low polyreactivity
QVHLVESGGGLVQAGGSLRLRCDASGSIFKPYARGWYRQAPGKERELVAGITAGGASTYYADSVKGRFTISRDNAKNTVYLQMNSLKPEDTAVYYCAAGDYQSGVRYDYWGQGTQVTVSS | low polyreactivity
QDQLVESGGGLVQAGGSLRLSCAASGRILRRNVMGWYRQAPGKESELVATITNSGGRTYYADSVKGRFTISRDNEKNTVYLLMNSLQPEDTAVYYCAKYGYGYTGYGYWGQGTQVTVSS | high polyreactivity
QVQLVESGGGLVQAGGSLRLSCAASGFIFARYAMGWYRQAPGKERELVARITTGDSTYYADSVKGRFTISRDNAKNTVYLQMNSLKPEDTAVYYCAADDNVSVVGLYYWGQGTQVTVSS | low polyreactivity
QVQLEESGRGLVQAGGSLRLSCAASGFTFSLYAMGWYRQAPGKERELVAAISSRSGSTFYADSVKGRFTISRDNAKNTVYLQMNSLKPEDTAVYYCAARRDWLGGYWGQGTQVTVSS | high polyreactivity
HVQLVDSSGRVVQARCSLRLSCAASGSTFHDNAMGWYRQAPGKDRDLEAAISSGGRTNYADSVKGRFTISRDNAKNTVYLQMNCLKPEDTAVYYCAASFRRWYFYARHDYGYWGLGTQVTVSS | low polyreactivity
QVQLVESGGGLVQAGGSLRLSCAASGSTISGYAMGWYRQAPGKERELVATISRGGSTNYADSVKGRFTISRDNAKNTVYLQMNSLKPEDTAVYYCAAQTYVWWVKYHSWGQGTQVTVSS | low polyreactivity
QVQLVESGGGLVQAGGSLRLSCAASGRTFKYNAMGWYRPAPGKERELVAAISSTGSTNYADSVKGRFTISRDNAKNTVYLQMNSLKPEDTAVYYCAASYFFVQWGWYYYWGQGTQVTVSS | low polyreactivity
QVQLVESGGGLVQAGGSLRLICAASGSIFTRNAMGWYRQAPGKEREFVAAISSSGVSTYYADSVKGRFTISRDNAKNTVYLQMISLKPEDTAVYYCAARWGTKSGRYDYWGQGTQVTVSS | high polyreactivity
QVQLLESGGGLVQAGGSLRLSCAASGSIFFYYAMGWDRQAPGKERELVATITSGGSTSYADSVKGRFTISRDNAKNTVYLQMNSLKPEDTAVYYCAARKVTKSTYNYWGQGTQVTVSS | low polyreactivity
QVQLEESGGGLVQAGGSLRLSCAASGIIFGRYTMGWYREAPGKERELVAAITSSGITYYADSVKGRFTISRDNAKNTVYLQMNSLKPEDTAVYYCAADSPVSVTADDGYWGQGTQVTVSS | low polyreactivity
QVQLVESGGGLVQAGGSLRLSCAASGRTFSNYAIGWYRQAPGKEREFVSDISWSVGSTYYADSVKGRFTISRDNAKNTVYLQMNSLKPEDTALYYCATEVPVGGQRHLFKYYYWGQGTQVTVSS | low polyreactivity
QVQLVESGGGLVQAGGSLRLSCAASGFIFAEYAMGWYRQAPGKERELVATINIGGSTYYADSVKGRFTISRDNAKNTVYLQMTSLKPEDTAVYYCAAEFWWGDGSQGIYDYDYWGQGTQVSVSS | low polyreactivity
QVQLVESGGGLVQAGGSLRLSCAASGFTFGYYAMGWYRQAPGKERELVAAITWSGGRTYYADSVKGRFTISRDNAKNTVYLQMNSLKPEDTAVYYGAVETLWQGSEYWGQGTQVTVSS | low polyreactivity

Sequence | polyreactivity (PSR sort gate)
QVQLVESGGGLVQAGGSLRLSCAASGRIFYSKVMGWYRQAPGKERELVAALSGRTGGTYYADSVKGRFTISRDNAKNTVYLQMNSLKPEDTAVYYCAARVLYYYGSGPYDYWGQGTQVTVSS | low polyreactivity
QVQLVESGGGLVQAGGSLRLSCAASGGILSDYAMGWYRQAPWKERELVAAITISGGRTNYADSVKGRFTISRDNAKNTVYLQMNSLKPEDTAVYYCAAGFYPYYYWGQGTQVTVSS | low polyreactivity
QVQLQESGGGLVQAGGSLRLSCAASGSISHYIFMGWYRQAPGKEREFVAGIGYGGTTNYADSVKGRFTISRDNAINTVYLQMNSLKPEDTAMYYCAAREATEFYLYYWGQGTQVTVSS | low polyreactivity
QVQLVESGGGLVQAGGSLRLSCAASGRIFVRNAMGWYRQAPGKERELVAAISWSSGGTYYADSVKGRFTISRDNAKNTVYLQMNSLKPEDTAVYYCNADPSRAGDYWGQGTQVTVSS | low polyreactivity
QVQLVESGGGLVQAGGSLRLSCAASGFIFDTYAMGWYRQAPGKERELVATINDRGDSTSYADSVKGRFTISRDNAKNTVYLQMNSLKPEDTAVYYCARTWGLRYRWSYGRSRYNYWGQGTQVTVSS | low polyreactivity
LVQLVESGGGLVQAGGSLRLSCAASGSTFANNAMGWYRQAPGKERELVASITTDGSTNYADSVKGRFTISRDNAKNTVYLQMNSLKPEDTAVYYCAAAYQKSPITPKMDYWGQGTQVTVSS | low polyreactivity
QVQLVESGGGLVQAGGSLRLSCAASGGTFRVYAMGWYRQAPVKERELVDAITWRGGRTYYADSVKGRFTISRDNAKNTDYFQMNSLKPEDPAVYYCAADRYGDLYDYWGQGTQVTVSS | high polyreactivity
QVQLVESGGGLVQAGGSLRLSCAASGSILYRYTMGWYRLAPGTERELVAAITKRGGRTYYADSVKGRITISRDNAMNTVYLQMNSLKPEDTAVFYCYALLTGGYQDSYPDDYWGQGTHVTVSS | high polyreactivity
QVQLVESGGGLVQAGGSLRLSCAASGSIFTRYVQGWYRQAPGNDRELVAAISGRGSSTYYADSVKGRFTISRDNAKNTVYLQMNSLKPEDTAVYYCAAEIVVFYSEGQRNTFYYWGQGTQVTVSS | high polyreactivity
QVQLVESGGGLVQAGGSLRLSCAASGRIFGYNAMGWYRHAPGTERELVAAITNGGSTNYADSVKGRFTISRDNAKNTVYLQMNSLKPEDTAVYYCAADRGGLRWFWQVLYDYWGQGTQVTVSS | low polyreactivity
QVQLLESGGGLVQAGGSLRLSCAASGRTFQRNAMGWYRQAPGKETELVATITTNGGSTYYADSVKGRFTISRDNAKNTVYLQMNSLKPEDTAVYYCAAPFNPRVRTLRSVRMDYWGQGTQVTVSS | low polyreactivity
QVQLVESGGGLVQAGGSLRLSCAASGNTFPVYAMGWYRQASGKERELVATITSGGSTNYADSVKGRFTISRDNAKNTVYLQMNSLKPEDTAVYDCARRAVYAKRRYDYWGQGTQVTVSS | low polyreactivity
QVQLVESGGGLVQAGGSLRLSCAASGITFFRNAMGWYRQAPGKERELVAVITYSGGRTSYADSVKGRFTISRDNAKNTVYLQMNSLKPEDTAVYYCATEKWQSSPGYTYYFVEYDYWGQGTQVTVSS | low polyreactivity
QVQLVESGGGLVQAGGSLRLSCAASGRIFPYNAMGWYRQAPGKERELVAAISFGGGRTYYADSVKGRFTISRDNAKNTVYLQMNRLKPEDTAVYYCNTASPQDIVFRVFYGGDYWGQGTQVTVSS | low polyreactivity
QVQLVESGGGLVQAGGSLRLSCAASGRIDLYNDMGWYRQAPGKERELVAAITWRSGSTYYADSVKGRFTFSRDNAKNTFYCQMNSLNPEDTAVYYCAKRGSGYKQDFKSYSGHYWGHGTQVTVSS | high polyreactivity
QVQLVESGGGLVQAGGSLRLSCAASGYIFYFNAMAWYRQAPGKEMELVAVISDRDDSTYYADSVKGRFTISRDNAKNTVYLHMNSLKPEDTAVYYCAADGDTYYNYYHWGQGTQVTVSS | low polyreactivity
QVQLVESGGGLVQAGGSLRLSCAASGRTFDYYAMGWYRQAPGKERELVAAISSSGGSTYYADSVKGRFTISRDNAKNTVYLQMNSLKPEDTEVYYCNAYAYRFNHIHHIYTTDGEYWGQGTQVTVSS | high polyreactivity
QVQLVESGGGLVQAGGSLRLSCPPSGYTISHYAMGWYRQAPGKERELVAGITWSGGSTYYADSVKGRFTISRDNAKNTVYLQMNSLKPEDTSVYFCAAKYYWYYSYSGIPLFDYWGQGTQVTVSS | low polyreactivity
QVQLVESGGGLVQAGGSLRLSCAASGFTFYAYAMGWYRQAPGKERELVAAISSRGGRTYYADSVKGRFTISRDNAKNTVYLQMNSLKPEDTAVYYCIVPYYSFRELSSYYWGQGTQVTVSS | high polyreactivity
QVQLVESGGGLVQAGGSLRLSCAASGRIFSPYAMGWYRQAPGKERELVAAITSSGGSTYYADSVKGRFTISRDNAKNTVYLQMNSLKPEDTAVYYCNARRGRYTPSVNYWGQGTQVTVSS | high polyreactivity
QVQLVESGGGLVQAGGSLRLSCAASGRTFGYNAMGWYRQAPGKERELVAAIRYSGGSTYYADSVKGRFTISRDNAKNTVYLQMNSLKPEDTAVYYCAAYCLFSSYGYDYWGQGTQVTVSS | high polyreactivity
